The values that follow are results of earlier work, collected in PMC8910494.

The target in the data set is FICD (Homo sapiens) (UniProt Q9BVA6).

As for FICD (from UniProt Q9BVA6), the Kd was 1.2 nM.

For orientation: Kd means a measure of binding affinity in units of concentration.
